# Experiment: yeast display, Sf9 membrane polyspecificity reagent, FACS + sequencing; frameworks hold sequencing errors
# Summary of the method: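 Synthetic nanobody libraries on Saccharomyces cerevisiae BJ5465 were galactose-induced for 36–48 hours, stained 1 hour at 4 °C with 10% biotinylated, detergent-solubilized Sf9 membrane reagent and enriched on streptavidin microbeads. FACS then separated cells into low and high (top ~1%) gates by anti-HA (expression) and streptavidin (reagent binding) fluorescence. Genes were colony-PCR amplified, MiSeq 2 × 250 sequenced and CDR-length filtered. A clone's polyreactivity label is that of its gate of origin.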
row,Sequence,polyreactivity (PSR sort gate)
1,QVQLVESGGGLVQAGGSLRLSCAASGFTFLYNAMGWYRQAPGKERELVAAIDSGGNTNYADSVKGRFTISRDNAKITVYLQLNSLKPEDTAVYYCAADVVSGGQGTADYDYWGQGTQVTVSS,low polyreactivity
2,QVQLVESGGGLVQAGGSLRLSCAASGFTFLYNAMGWYRQAPGKERELVAAIDSGGNTNYADSVKGRFTISRDNAKNTVYLQMNSLKPEDTAVYYCAADVVSVGQGTADYDYWGQGTQVTVSS,low polyreactivity
3,QVQLVESGGGLVQAGGSLRLSCAASGFTFLYNAMGWYRQAPGKERELVASINSGGSTNYADSVKGRFTISRDKSKNTVYLQMNRLKPEDTAVYYCNAKRHVRKGDYGGQGTQVTVSS,low polyreactivity
4,QVQLVESGGGLVQAGGSLRLSCAASGFTFLYNVMGWYRQAPGKERELVAAISQSGTDTYYADSVKGRFTISRDNAKYTVYLQMNSLKPEDTAVYYCAVDVYFYYRHYGYWGQGTQVTVSS,low polyreactivity
5,QVQLVESGGGLVQAGGSLRLSCAASGFTFLYYAMGWYRQAPGKEREVVAAISSGGSTYYADSVKGRFTISRDNAKNTVYLQMNSLKPEDTAVYYCNVRYTRNRWQYDYWGQGSQVTVSS,high polyreactivity
6,QVQLVESGGGLVQAGGSLRLSCAASGFTFLYYTMGWYRQAPGKERELVAAISSGGRTTYADSVKGRFTISRDNAKNTVYLQMNSLKQEDTAVYYCAARYRTLDGEVDYWGQGTQVTVSS,high polyreactivity
7,QVQLVESGGGLVQAGGSLRLSCAASGFTFNDYAMGWYRQAPGKERELVAAIDWSGGRTYYADSVKGRFTISRDNAKNTVYLQMNSLKPEDTAVYYCAAVLYSRLYLYRLDYWGQGTQVTVSS,low polyreactivity
8,QVQLVESGGGLVQAGGSLRLSCAASGFTFNFYAMRWYRQAPGKERELVAAITASGVRRYYADSVKGRFTISRDNAKNTVYLQMNSLKPEDTAVYYCNTYMYRNKSGYDYWGQGTQVTVSS,high polyreactivity
9,QVQLVESGGGLVQAGGSLRLSCAASGFTFNKYAMGWYRQAPGKERELVAAISSSGGSTRYADSVKGRFTISRDNAKNTVYLQMNSLKPEDTAVYYCAVYVTRDSGWWLYDYWGQGTQVTVSS,high polyreactivity
10,QVQLVESGGGLVQAGGSLRLSCAASGFTFNNNAMGWYRQAPGKERELVAAITSSGGSTRYADSVKGRFTISRDNAKNTVYLQMNSLKPEDTAVYYCNAARQRKYSNWYDYWGQGTQVTVSS,high polyreactivity
11,QVQLVESGGGLVQAGGSLRLSCAASGFTFNNYAMGWYRQAPGKERELVAAISSGAGTYYADSVKGRFTISRDNAKNTVYLQMNSLKPEDTAVYYCNASLKYQGLTRITYRDDYWGQGTQVTVSS,low polyreactivity
12,QVQLVESGGGLVQAGGSLRLSCAASGFTFNRNDMGWYRQAPGKERELVAAISTSGGRTYYADSVKGRFTISRDNAKNTVYLQMNSLKPEDTAVYYCAADGIYPVGVDYWGQGTQVTVSS,high polyreactivity
13,QVQLVESGGGLVQAGGSLRLSCAASGFTFNRTAMGWYRQAPGKERELVAAITRRGGSTYYADSVKGRFTISRDNAKNTVYLQMNSLKPEDTAVYYCAARRGAGDGYWGQGTQVTVSS,high polyreactivity
14,QVQLVESGGGLVQAGGSLRLSCAASGFTFNRYAMGWYRQAPGKERELVAAISWSGTSTYYADSVKGRFTISRDNAKNTVYLQMNSLKQEDTAVYYCAARVKGQWNTYDYWGQGTQVTVTS,high polyreactivity
15,QVQLVESGGGLVQAGGSLRLSCAASGFTFNRYAMGWYRQAPGKERELVATITSGGNTYYADSVKGRFTISRDNAKNTVYLQMNSLKPEDTAVYYCNKRGWYSVYRRDFWGQGTQVTVSS,high polyreactivity
16,QVQLVESGGGLVQAGGSLRLSCAASGFTFNSYAMGWYRQAPGKERELVAAISSSGGRTYYADSVKGRFTISRDNAKNTVYFQMNSLKPEDTAVYYCNAVLVSYYSVGYDYWGQGSQVTVSS,high polyreactivity
17,QVQLVESGGGLVQAGGSLRLSCAASGFTFNSYAMGWYRQAPGKERELVAAITSSGGRTYYADSVKGRFTISRDNAKNTVYLQMNSLKPEDTAVYYCAARRGGKVATIYDYWGQGTQVTVSS,low polyreactivity
18,QVQLVESGGGLVQAGGSLRLSCAASGFTFNTNAMGWYRQAPGKERELVAAITSSGGSTYYADSVKGRFTISRDNAKNTVYLQMNSLKPEDTAVYYCNADVTLRLWAYYYYRYNYWGQGTQVTVSS,low polyreactivity
19,QVQLVESGGGLVQAGGSLRLSCAASGFTFNVYAMGWYRQAPGKERELVARITRRGGSTYYADSVKGRFTISRDNAKNTVYLQMNSLKPEDTAVYYCNADSPVVSGRGGRRSAYLNDYWGQGTKVTVSS,high polyreactivity
20,QVQLVESGGGLVQAGGSLRLSCAASGFTFNWYAMGWYRQAPGKERELVAAINSSGGNTYYADSVKGRFTISRDNAKNTVYLQMNSLKPEDTAVYYCAALLWGYVAFDYWGQGTQVTVSS,high polyreactivity
21,QVQLVESGGGLVQAGGSLRLSCAASGFTFNYNTMGWYRQAPGKERQLVAAISRSGGSTYYADSVKGRITISRDNAKNTVYLQMNSLKPEDTAVFYCAKDTYYPSSRYNRYYYWGQGTQVTVSS,high polyreactivity
22,QVQLVESGGGLVQAGGSLRLSCAASGFTFNYYAMGWYRQAPGKERELVAAISGRGGSTYYADSVKGRFTISRDNAKNTVYLQMNSLIPEDTAVYYCAADYWYDYYSTEYDYWGQGTQVTVSS,low polyreactivity

row,Sequence,polyreactivity (PSR sort gate)
1,QVQLVESGGGLVQAGGSLRLSCAASGFTFPAYTMGWYRQAPGKERELVSAITSSGGNTYYADSVKGRFTISRDNAKNTVYLQMNSLKPEDTAVYYCSTVSVRGPSYDHVRYDYWGQGTQVTVSS,low polyreactivity
2,QVQLVESGGGLVQAGGSLRLSCAASGFTFPDYAMGWYRQAPGKERELVAAISSDGSTYYADSVKGRFTISRDNAKNTVYLQMNSLKPEDTAVYYCAAYVVWLYGYDYWGQGTKVTVSS,low polyreactivity
3,QVQLVESGGGLVQAGGSLRLSCAASGFTFPFYTMGWYRQAPGKERELVAAISRGGSTNYADSVKGRFTISRDNAKNTVYLQMNSLKPEDTAVSYCNKRYYRDLIGYYWGQGTQVTVSS,high polyreactivity
4,QVQLVESGGGLVQAGGSLRLSCAASGFTFPIYAMGWYRQAPGKEREFVAAITRSGVSTYYADSVKGRFTISRDNAKNTVYLQMNSLKPEDTAVYYCAARYKGRAFWMDYWGQGTQVTVSS,high polyreactivity
5,QVQLVESGGGLVQAGGSLRLSCAASGFTFPNAMGWYRQAPGKERELVATISSSGGSTYYADSVKGRFTISRDNAKNTVYLQMNSLKPEDTAVYYCAARTRQYWIYRAYRDDYWGQGTQVTVSS,low polyreactivity
6,QVQLVESGGGLVQAGGSLRLSCAASGFTFPPYAMGWYIQAPGKERELVAGISWIGSSTYYADSVKGRFTISRDNAKNTVYLQMNSLKPEDTAVYYCNARYLLFAGGRRYYWGQGTQVTVSS,high polyreactivity
7,QVQLVESGGGLVQAGGSLRLSCAASGFTFPRYAMGWYRQAPGKERELVAAITVGGGRTYYADSVKGRFTISRDNAKNTVYLQMNSLKPEDTAVYYCAADSHASTYDYWGQGTQVTVSS,low polyreactivity
8,QVQLVESGGGLVQAGGSLRLSCAASGFTFPRYAMGWYRQAPGKERELVAVITRRGGSTYYADSVKGRFTISRDNAKNTVYLQMNSLKPEDTAVYDCAASDPSNKSSRPGYSYDSDSWGQGTQVTVSS,high polyreactivity
9,QVQLVESGGGLVQAGGSLRLSCAASGFTFPSYTMGWYRQAPGKERELVAAISWSGGRTYYADSVKGRFTISRDNAKITVYLQKNSLKPEETAVYYCAAGYRTGGDSGDYWGQGTQVTVSS,high polyreactivity
10,QVQLVESGGGLVQAGGSLRLSCAASGFTFPTYAMVWYRQAPGKERELVAAITRGGSTYYADSVKGRFTISRDNAKYTVYLQMNSLKPEDTAVYYCAADDPWYEEDYWGQGTQVTVSS,low polyreactivity
11,QVQLVESGGGLVQAGGSLRLSCAASGFTFPWYAMGWYRQAPGKERELVASISYRGDSTYYADSVKGRFTISRDNAKNTVYLQMNSLKPEDTAVYYCNTRLASYYLPGFDYWGQGTQVTVSS,low polyreactivity
12,QVQLVESGGGLVQAGGSLRLSCAASGFTFPYYAMGWYRQAPGKERELVAAISKSGGSTYFADSVKGRFTISRDNAKNTVYLQMNSLKPEDTAVYYCAAQGGSKYRGYYYWGQGTQVTVSS,high polyreactivity
13,QVQLVESGGGLVQAGGSLRLSCAASGFTFPYYAMGWYRQAPVKERELVAAISYNGGSTYYADSVKGRFTISRDNAKNNVYLQMNSLKPEDTAVYYCNAVYYDSGVVGYYYWGQGTQVTVSS,high polyreactivity
14,QVQLVESGGGLVQAGGSLRLSCAASGFTFPYYAVGWYRQAPGKERELVAAISKGGTRTYYADSVKGRFTISRDNAKNTVYLQMNSLKPEDTAVYYCAATRIYQEMDYWGQGTQVTVSS,high polyreactivity
15,QVQLVESGGGLVQAGGSLRLSCAASGFTFQDNAMGWYRHAPGKERELVASITGSGGSTYYADSVKGRFTISRDNAKNTVYLQMNSLKPEDTAVYYCAAETYTRSALVLYGSREMEYWGQGTQVTVSS,low polyreactivity
16,QVQLVESGGGLVQAGGSLRLSCAASGFTFQFYDMGWYRQAPGTEREFVATITSSGGSTYYADSVKGRFTISRDNAKNTVYLQMNSLKPEDPAVYYCANDKLFFYRVGSDYWGQGTQVTVSS,low polyreactivity
17,QVQLVESGGGLVQAGGSLRLSCAASGFTFQRYAMGWYRQAPGKERELVADISRSGGSTYYADSVKGRFTISRDNAKNTVYLQMNSLKPEDTAVYYCAAGYPGYDSYYKFYYWGQGTQVTVSS,high polyreactivity
18,QVQLVESGGGLVQAGGSLRLSCAASGFTFQSYAMGWYRQAPGKERELVATIRTRGGSTSYADSVKGRFTISRDNAKNTVYLQMNSLKPEDTAVYYCNGRLSYRSAWYYGGDRYDYWGQGTQVTVSS,high polyreactivity
19,QVQLVESGGGLVQAGGSLRLSCAASGFTFQTYAMGWYRQAPGKERELVATINSSGGGTYYADSVKGRFTISRDNAKNTVYLQMNSLKPEDTAVYYCAADAVWFVGQAFDISDSTTYGYWGQGTQVTVSS,low polyreactivity
20,QVQLVESGGGLVQAGGSLRLSCAASGFTFQVNTMGWYRQAPGKERELVAAISWSGGSTYYADSVKGRFTISRDNAKNTVYLQMNSLKPEDTAVYYCNAVPVSYRGGYWGQGTQVTVSS,low polyreactivity
21,QVQLVESGGGLVQAGGSLRLSCAASGFTFRANGMGWYRQAPGKERELVATITSGGTTNYADSVKGRFTISRDNAKNTVYFQMNSLKPEDTAVLYCAKRFGPAYFRLYDYWGQGTQVTVSS,low polyreactivity

# — the nanobody polyreactivity screen of Harvey et al. (2022)
